From IntAct's records for PubMed 31515488

B1: Segment polarity protein dishevelled homolog DVL-2 (Homo sapiens), O14641 (parent)
chain: MAGSSTGGGGVGETKVIYHLDEEETPYLVKIPVPAERITLGDFKSVLQRPAGAKYFFKSMDQDFGVVKEEISDDNARLPCFNGRVVSWLVSSDNPQPEMAPPVHEPRAELAPPAPPLPPLPPERTSGIGDSRPPSFHPNVSSSHENLEPETETESVVSLRRERPRRRDSSEHGAGGHRTGGPSRLERHLAGYESSSTLMTSELESTSLGDSDEEDTMSRFSSSTEQSSASRLLKRHRRRRKQRPPRLERTSSFSSVTDSTMSLNIITVTLNMEKYNFLGISIVGQSNERGDGGIYIGSIMKGGAVAADGRIEPGDMLLQVNDMNFENMSNDDAVRVLRDIVHKPGPIVLTVAKCWDPSPQAYFTLPRNEPIQPIDPAAWVSHSAALTGTFPAYPGSSSMSTITSGSSLPDGCEGRGLSVHTDMASVTKAMAAPESGLEVRDRMWLKITIPNAFLGSDVVDWLYHHVEGFPERREARKYASGLLKAGLIRHTVNKITFSEQCYYVFGDLSGGCESYLVNLSLNDNDGSSGASDQDTLAPLPGATPWPLLPTFSYQYPAPHPYSPQPPPYHELSSYTYGGGSASSQHSEGSRSSGSTRSDGGAGRTGRPEERAPESKSGSGSESEPSSRGGSLRRGGEASGTSDGGPPPSRGSTGGAPNLRAHPGLHPYGPPPGMALPYNPMMVVMMPPPPPPVPPAVQPPGAPPVRDLGSVPPELTASRQSFHMAMGNPSEFFVDVM
partner: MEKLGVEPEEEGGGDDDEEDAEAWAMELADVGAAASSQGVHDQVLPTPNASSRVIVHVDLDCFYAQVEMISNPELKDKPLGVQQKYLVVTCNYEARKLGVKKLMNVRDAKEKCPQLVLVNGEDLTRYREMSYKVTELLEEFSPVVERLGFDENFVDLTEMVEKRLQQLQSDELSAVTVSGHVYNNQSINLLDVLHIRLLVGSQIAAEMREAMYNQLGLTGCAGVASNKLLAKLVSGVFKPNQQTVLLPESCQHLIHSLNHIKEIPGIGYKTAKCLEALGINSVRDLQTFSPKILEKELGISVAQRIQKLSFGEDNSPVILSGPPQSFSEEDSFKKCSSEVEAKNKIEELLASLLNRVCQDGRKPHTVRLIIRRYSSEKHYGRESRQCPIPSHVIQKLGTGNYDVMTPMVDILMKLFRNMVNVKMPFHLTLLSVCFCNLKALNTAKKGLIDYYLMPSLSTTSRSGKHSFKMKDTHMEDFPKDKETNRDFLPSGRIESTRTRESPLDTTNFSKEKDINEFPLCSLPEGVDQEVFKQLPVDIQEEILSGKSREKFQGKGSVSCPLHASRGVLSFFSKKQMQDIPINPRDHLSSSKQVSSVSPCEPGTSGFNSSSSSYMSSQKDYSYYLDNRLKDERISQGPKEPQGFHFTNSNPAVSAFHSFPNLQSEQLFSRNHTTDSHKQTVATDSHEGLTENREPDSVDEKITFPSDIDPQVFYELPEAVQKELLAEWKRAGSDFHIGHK
B2: Medium-chain acyl-CoA ligase ACSF2, mitochondrial (Homo sapiens), Q96CM8 (parent)
chain: MAVYVGMLRLGRLCAGSSGVLGARAALSRSWQEARLQGVRFLSSREVDRMVSTPIGGLSYVQGCTKKHLNSKTVGQCLETTAQRVPEREALVVLHEDVRLTFAQLKEEVDKAASGLLSIGLCKGDRLGMWGPNSYAWVLMQLATAQAGIILVSVNPAYQAMELEYVLKKVGCKALVFPKQFKTQQYYNVLKQICPEVENAQPGALKSQRLPDLTTVISVDAPLPGTLLLDEVVAAGSTRQHLDQLQYNQQFLSCHDPINIQFTSGTTGSPKGATLSHYNIVNNSNILGERLKLHEKTPEQLRMILPNPLYHCLGSVAGTMMCLMYGATLILASPIFNGKKALEAISRERGTFLYGTPTMFVDILNQPDFSSYDISTMCGGVIAGSPAPPELIRAIINKINMKDLVVAYGTTENSPVTFAHFPEDTVEQKAESVGRIMPHTEARIMNMEAGTLAKLNTPGELCIRGYCVMLGYWGEPQKTEEAVDQDKWYWTGDVATMNEQGFCKIVGRSKDMIIRGGENIYPAELEDFFHTHPKVQEVQVVGVKDDRMGEEICACIRLKDGEETTVEEIKAFCKGKISHFKIPKYIVFVTNYPLTISGKIQKFKLREQMERHLNL
partner: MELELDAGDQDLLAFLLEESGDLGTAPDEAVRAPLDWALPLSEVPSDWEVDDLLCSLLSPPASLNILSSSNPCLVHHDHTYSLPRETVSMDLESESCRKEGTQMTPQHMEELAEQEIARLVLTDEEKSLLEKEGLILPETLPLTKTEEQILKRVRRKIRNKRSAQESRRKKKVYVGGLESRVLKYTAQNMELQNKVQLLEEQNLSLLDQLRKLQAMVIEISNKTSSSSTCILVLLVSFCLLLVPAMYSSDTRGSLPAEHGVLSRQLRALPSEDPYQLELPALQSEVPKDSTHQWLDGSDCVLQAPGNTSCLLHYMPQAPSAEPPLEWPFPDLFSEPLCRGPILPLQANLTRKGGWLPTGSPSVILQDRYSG
B3: Poliovirus receptor (Homo sapiens), P15151 (parent)
chain: MARAMAAAWPLLLVALLVLSWPPPGTGDVVVQAPTQVPGFLGDSVTLPCYLQVPNMEVTHVSQLTWARHGESGSMAVFHQTQGPSYSESKRLEFVAARLGAELRNASLRMFGLRVEDEGNYTCLFVTFPQGSRSVDIWLRVLAKPQNTAEVQKVQLTGEPVPMARCVSTGGRPPAQITWHSDLGGMPNTSQVPGFLSGTVTVTSLWILVPSSQVDGKNVTCKVEHESFEKPQLLTVNLTVYYPPEVSISGYDNNWYLGQNEATLTCDARSNPEPTGYNWSTTMGPLPPFAVAQGAQLLIRPVDKPINTTLICNVTNALGARQAELTVQVKEGPPSEHSGISRNAIIFLVLGILVFLILLGIGIYFYWSKCSREVLWHCHLCPSSTEHASASANGHVSYSAVSRENSSSQDPQTEGTR
partner: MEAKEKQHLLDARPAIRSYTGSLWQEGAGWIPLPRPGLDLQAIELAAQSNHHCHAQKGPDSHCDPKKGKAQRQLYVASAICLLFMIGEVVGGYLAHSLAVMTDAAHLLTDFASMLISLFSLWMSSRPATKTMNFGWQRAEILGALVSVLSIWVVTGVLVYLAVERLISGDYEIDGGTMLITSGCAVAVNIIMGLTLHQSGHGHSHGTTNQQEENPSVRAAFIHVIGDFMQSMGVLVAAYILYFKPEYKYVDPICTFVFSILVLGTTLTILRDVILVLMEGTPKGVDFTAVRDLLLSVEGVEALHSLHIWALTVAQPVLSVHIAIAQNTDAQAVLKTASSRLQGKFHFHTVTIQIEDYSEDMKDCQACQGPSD
B4: Interferon-induced protein with tetratricopeptide repeats 2 (Homo sapiens), P09913 (parent)
chain: MSENNKNSLESSLRQLKCHFTWNLMEGENSLDDFEDKVFYRTEFQNREFKATMCNLLAYLKHLKGQNEAALECLRKAEELIQQEHADQAEIRSLVTWGNYAWVYYHMGRLSDVQIYVDKVKHVCEKFSSPYRIESPELDCEEGWTRLKCGGNQNERAKVCFEKALEKKPKNPEFTSGLAIASYRLDNWPPSQNAIDPLRQAIRLNPDNQYLKVLLALKLHKMREEGEEEGEGEKLVEEALEKAPGVTDVLRSAAKFYRRKDEPDKAIELLKKALEYIPNNAYLHCQIGCCYRAKVFQVMNLRENGMYGKRKLLELIGHAVAHLKKADEANDNLFRVCSILASLHALADQYEDAEYYFQKEFSKELTPVAKQLLHLRYGNFQLYQMKCEDKAIHHFIEGVKINQKSREKEKMKDKLQKIAKMRLSKNGADSEALHVLAFLQELNEKMQQADEDSERGLESGSLIPSASSWNGE
partner: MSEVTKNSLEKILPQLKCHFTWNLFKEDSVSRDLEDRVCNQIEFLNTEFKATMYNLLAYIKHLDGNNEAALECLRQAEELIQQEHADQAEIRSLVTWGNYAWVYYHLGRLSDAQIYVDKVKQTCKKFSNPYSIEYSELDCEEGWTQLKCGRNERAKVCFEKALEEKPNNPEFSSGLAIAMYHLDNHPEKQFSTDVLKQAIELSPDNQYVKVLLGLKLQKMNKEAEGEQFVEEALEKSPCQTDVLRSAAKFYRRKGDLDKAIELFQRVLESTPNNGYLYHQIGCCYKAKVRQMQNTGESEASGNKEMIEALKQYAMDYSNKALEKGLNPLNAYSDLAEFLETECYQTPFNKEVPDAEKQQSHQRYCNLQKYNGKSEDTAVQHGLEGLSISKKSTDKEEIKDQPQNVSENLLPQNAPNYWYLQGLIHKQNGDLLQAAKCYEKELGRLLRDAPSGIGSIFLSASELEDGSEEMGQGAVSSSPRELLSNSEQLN
B5: 26S proteasome non-ATPase regulatory subunit 9 (Homo sapiens), O00233 (parent)
chain: MSDEEARQSGGSSQAGVVTVSDVQELMRRKEEIEAQIKANYDVLESQKGIGMNEPLVDCEGYPRSDVDLYQVRTARHNIICLQNDHKAVMKQVEEALHQLHARDKEKQARDMAEAHKEAMSRKLGQSESQGPPRAFAKVNSISPGSPASIAGLQVDDEIVEFGSVNTQNFQSLHNIGSVVQHSEGKPLNVTVIRRGEKHQLRLVPTRWAGKGLLGCNIIPLQR

Variants of: B1
Conditions: with poli_human POLI

Variant	effect of a mutation on the interaction
T535I	with no effect
A53V	with no effect

Variants of: B2
Conditions: with creb3_human CREB3, O43889

Variant	effect of a mutation on the interaction
A34V	disrupting interaction strength
G19W	disrupting interaction strength

Variants of: B3
Conditions: with znt2_human SLC30A2, Q9BRI3

Variant	effect of a mutation on the interaction
A67T	with no effect

Variants of: B4
Conditions: with ifit3_human IFIT3, O14879

Variant	effect of a mutation on the interaction
E79A	disrupting interaction strength

Variants of: B5
Conditions: with prs6a_human PSMC3, P17980
Sequence of prs6a_human PSMC3, P17980 (P17980 whole entry): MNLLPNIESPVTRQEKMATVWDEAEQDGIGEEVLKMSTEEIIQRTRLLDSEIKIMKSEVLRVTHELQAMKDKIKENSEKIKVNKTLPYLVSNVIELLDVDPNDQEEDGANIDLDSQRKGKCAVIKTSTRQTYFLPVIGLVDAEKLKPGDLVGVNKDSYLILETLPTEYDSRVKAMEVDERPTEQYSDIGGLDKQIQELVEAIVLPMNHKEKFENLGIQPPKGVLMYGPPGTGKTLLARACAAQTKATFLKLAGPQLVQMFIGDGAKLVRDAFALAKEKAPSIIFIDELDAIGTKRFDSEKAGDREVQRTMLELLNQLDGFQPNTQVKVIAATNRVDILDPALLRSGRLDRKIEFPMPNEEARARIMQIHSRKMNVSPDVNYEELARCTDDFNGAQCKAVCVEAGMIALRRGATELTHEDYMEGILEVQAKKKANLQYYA

Variant	effect of a mutation on the interaction
R134W	with no effect
E197G	with no effect

Variants of: B5
Conditions: with prs10_human PSMC6, P62333
Sequence of prs10_human PSMC6, P62333 (P62333 whole entry): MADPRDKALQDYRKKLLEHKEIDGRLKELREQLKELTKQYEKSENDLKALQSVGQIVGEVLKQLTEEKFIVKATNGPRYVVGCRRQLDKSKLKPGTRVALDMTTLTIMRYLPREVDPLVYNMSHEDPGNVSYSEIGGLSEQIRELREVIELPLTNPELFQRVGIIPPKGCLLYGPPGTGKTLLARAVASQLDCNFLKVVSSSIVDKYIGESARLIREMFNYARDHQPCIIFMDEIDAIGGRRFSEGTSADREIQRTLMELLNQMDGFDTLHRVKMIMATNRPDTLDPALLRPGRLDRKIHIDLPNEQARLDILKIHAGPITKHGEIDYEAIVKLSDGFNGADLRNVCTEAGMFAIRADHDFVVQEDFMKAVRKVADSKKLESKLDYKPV

Variant	effect of a mutation on the interaction
R134W	with no effect

Variants of: B5
Conditions: with spn90_human NCKIPSD

Variant	effect of a mutation on the interaction
R134W	with no effect
E197G	with no effect

Variants of: B5
Conditions: with cc136_human CCDC136, Q96JN2
Sequence of cc136_human CCDC136, Q96JN2 (Q96JN2 whole entry): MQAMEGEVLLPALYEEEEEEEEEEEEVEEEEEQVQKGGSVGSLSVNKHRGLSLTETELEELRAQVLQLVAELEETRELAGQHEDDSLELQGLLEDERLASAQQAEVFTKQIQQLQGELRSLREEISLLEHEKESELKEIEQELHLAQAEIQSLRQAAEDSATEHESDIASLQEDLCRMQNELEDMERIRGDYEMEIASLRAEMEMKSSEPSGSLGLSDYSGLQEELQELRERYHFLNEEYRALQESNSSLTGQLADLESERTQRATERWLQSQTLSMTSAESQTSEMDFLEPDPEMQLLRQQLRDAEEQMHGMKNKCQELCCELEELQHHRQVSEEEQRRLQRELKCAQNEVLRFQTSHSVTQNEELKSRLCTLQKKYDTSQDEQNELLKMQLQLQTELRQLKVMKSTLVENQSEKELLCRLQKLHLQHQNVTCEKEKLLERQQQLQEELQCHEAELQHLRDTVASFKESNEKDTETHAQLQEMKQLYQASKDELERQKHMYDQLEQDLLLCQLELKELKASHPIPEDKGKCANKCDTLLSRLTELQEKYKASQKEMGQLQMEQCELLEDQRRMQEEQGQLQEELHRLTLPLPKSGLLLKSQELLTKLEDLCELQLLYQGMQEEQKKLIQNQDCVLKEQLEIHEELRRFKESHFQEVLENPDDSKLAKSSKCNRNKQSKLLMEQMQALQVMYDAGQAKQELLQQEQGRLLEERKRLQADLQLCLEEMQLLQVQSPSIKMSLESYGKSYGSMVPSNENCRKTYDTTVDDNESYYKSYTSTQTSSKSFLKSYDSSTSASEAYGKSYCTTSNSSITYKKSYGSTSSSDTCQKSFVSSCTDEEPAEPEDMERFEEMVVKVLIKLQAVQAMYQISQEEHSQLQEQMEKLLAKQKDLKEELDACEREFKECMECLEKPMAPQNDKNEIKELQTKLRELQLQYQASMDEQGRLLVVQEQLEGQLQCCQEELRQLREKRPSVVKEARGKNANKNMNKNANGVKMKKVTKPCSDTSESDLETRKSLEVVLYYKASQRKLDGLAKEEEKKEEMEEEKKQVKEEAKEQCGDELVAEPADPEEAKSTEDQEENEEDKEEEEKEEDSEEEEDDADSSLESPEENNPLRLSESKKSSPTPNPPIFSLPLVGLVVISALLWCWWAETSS

Variant	effect of a mutation on the interaction
V17A	with no effect
